These results are taken from paper PMC7343719, “Immobilization of the Highly Active UDP-Glucose Pyrophosphorylase From Thermocrispum agreste Provides a Highly Efficient Biocatalyst for the Production of UDP-Glucose” (Frontiers in Bioengineering and Biotechnology, 2020).

Substrate in data set [1]: O=P(O)(O)O[C@H]1O[C@H](CO)[C@@H](O)[C@H](O)[C@H]1O
Kind of data set: purified protein. Type of data set: biochemical, Thermocrispum agreste. The settings on record: free enzyme, 0.01-45 mM G1P, 2 mM UTP, 3 mM MgCl2, 50 mM Hepes, pH 7.0, 50°C.

Substrate in data set [2]: O=c1ccn([C@@H]2O[C@H](COP(=O)(O)OP(=O)(O)OP(=O)(O)O)[C@@H](O)[C@H]2O)c(=O)[nH]1
Kind of data set: purified protein. The format is biochemical, Thermocrispum agreste. The conditions noted are these: free enzyme, 0.05-6 mM UTP, 30 mM G1P, 3 mM MgCl2, 50 mM Hepes, pH 7.0, 50°C.

For orientation: Km means the concentration of substrate that gives half-maximal velocity. As usually defined, the Vmax is the top rate of the reaction or transport when substrate is in excess. In general, kcat refers to the maximal rate divided by the concentration of active sites. By kcat/Km is commonly meant the turnover number divided by the Michaelis constant.

B1: TaGalU (Thermocrispum agreste) (protein)
chain: MTASAEHQTFTTAIVPAAGLGTRFLPTTKSVPKELLPVVDTPAIELVADEARQAGAERLVIVTSPAKQSIAAYFRPAPELERSLEEKGKTGQLAKIRRAPELLEVEVAIQEQALGLGHAVACAEPNLGPEDDVVAVLLPDDLVLPHGILERMAKVRAEHGGSVLCAFDIPKEEISAYGVFDVSDTDDADVKRVHGMVEKPPAEQAPSTFAAAGRYLLDRAIFDALRRIEPGAGGELQLTDAVALLIQEGHPVHVVVHRGVRHDLGNPGDFLRAAVDFALQDPDYGPELRAWLTDRIARP
notes: full-length, N-terminal His10 tag (pET16bP, no cleavage mentioned), codon-optimized gene (911 bp insert), expressed in E. coli BL21(DE3) pLysS; theoretical mass 33,678 Da; hexamer of about 193 kDa by SEC; EC 2.7.7.9
With B1, in the data set “purified protein [1]”, the Km was found to be 440 µM, the maximal velocity (Vmax) came to 1110 µmol/min/mg, the turnover number (kcat) came out at 598 s⁻¹ and the kcat/Km was determined as 1.36e+06 M⁻¹ s⁻¹. Besides, in “purified protein [2]”, the Km was determined as 150 µM, the Vmax is 1700 µmol/min/mg, the kcat was determined as 914 s⁻¹ and the kcat/Km was 6.09e+06 M⁻¹ s⁻¹.
